From patent US20200347137A1 (SYSTIMMUNE, published 2020)
Residue numbers refer to the chain shown, from its start.

B1: Fc-PD224D1 scFv IgG1 null (Fc fusion, not shown: a dimerising Fc or GST; small tags and cut ends)
scFv: EVQLVESGGGLVQPGGSLRLSCTASGFSLSSYAMSWVRQAPGKGLEYIGYIGDTTGIAYASWANGRFTISKDNTKNTVDLQMNSLRAEDTAVYYCARGWSYLDIWGQGTLVTVSSGGGGSGGGGSGGGGSGGGGSALVMTQSPSSLSASVGDRVTITCQASQNIYSNLAWYQQKPGKVPKLLIYQASTLASGVPSRFSGSGYGTDFTLTISSLQPEDVATYYCQGGYYSAALNTFGGGTKVEIK
notes: a component control of the bispecific antibody
B2: PL221G5 Fc-scFv (Fc fusion)
scFv: EVQLLESGGGLVQPGGSLRLSCAASGFSFSSGYDMCWVRQAPGKGLEWIACIAAGSAGITYDANWAKGRFTISRDNSKNTLYLQMNSLRAEDTAVYYCARSAFSFDYAMDLWGQGTLVTVSSGGGGSGGGGSGGGGSGGGGSDIQMTQSPSTLSASVGDRVTITCQASQSISSHLNWYQQKPGKAPKLLIYKASTLASGVPSRFSGSGSGTEFTLTISSLQPDDFATYYCQQGYSWGNVDNVFGGGTKVEIK
notes: scFv at the C-terminus of an Fc; The Fc part is not specified; not shown: The Fc part and the linker joining it to the scFv
B3: PL221G5 mAb (antibody, V domains shown)
VH: EVQLLESGGGLVQPGGSLRLSCAASGFSFSSGYDMCWVRQAPGKGLEWIACIAAGSAGITYDANWAKGRFTISRDNSKNTLYLQMNSLRAEDTAVYYCARSAFSFDYAMDLWGQGTLVTVSS
VL: DIQMTQSPSTLSASVGDRVTITCQASQSISSHLNWYQQKPGKAPKLLIYKASTLASGVPSRFSGSGSGTEFTLTISSLQPDDFATYYCQQGYSWGNVDNVFGGGTKVEIK
notes: Anti-PD-L1 clone tested in mAb format
B4: PL004B9 Fc-scFv (Fc fusion, not shown: a dimerising Fc or GST; small tags and cut ends)
scFv: EVQLVESGGGLVQPGGSLRLSCTVSGIDLSVINMGWVRQAPGKGLEWIGTITYVGNTYYASWAKGRFTISKTSTTVDLKITSPTTEDTAVYYCARESGTIYYSYFNLWGQGTLVTVSSGGGGSGGGGSGGGGSGGGGSAFELTQSPSSLSASVGDRVTIKCQASESISNYLSWYQQIPGKVPKLLIYYASNLASGVPSRFSGSGSGTDFTLTISSLQPEDVATYYCQSYYGGGSAYTFGGGTKVEIK
notes: scFv at the C-terminus of an Fc
B5: PL230C6 mAb (antibody, V domains shown)
VH: QSVEESGGGLVQPGGSLRLSCTASGIDLNTYDMIWVRQAPGKGLEWVGIITYSGSRYYANWAKGRFTISKDNTKNTVYLQMNSLRAEDTAVYYCARDYMSGSHLWGQGTLVTVSS
VL: AYDMTQSPSSVSASVGDRVTIKCQASEDIYSFLAWYQQKPGKAPKLLIHSASSLASGVPSRFSGSGSGTDFTLTISSLQPEDFATYYCQQGYGKNNVDNAFGGGTKVEIK
notes: also called PL23006
B6: PL231H2 mAb (antibody, V domains shown)
VH: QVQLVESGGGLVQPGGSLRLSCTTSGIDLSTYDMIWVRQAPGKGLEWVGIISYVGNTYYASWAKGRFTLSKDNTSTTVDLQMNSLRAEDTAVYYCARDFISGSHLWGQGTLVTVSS
VL: B5 VL with K22N, D28S, Y30S, A34S, H49F, S53T, G93S, N95S
notes: as for B3
B7: PL230C6 Fc-scFv (Fc fusion)
scFv: QSVEESGGGLVQPGGSLRLSCTASGIDLNTYDMIWVRQAPGKGLEWVGIITYSGSRYYANWAKGRFTISKDNTKNTVYLQMNSLRAEDTAVYYCARDYMSGSHLWGQGTLVTVSSGGGGSGGGGSGGGGSGGGGSAYDMTQSPSSVSASVGDRVTIKCQASEDIYSFLAWYQQKPGKAPKLLIHSASSLASGVPSRFSGSGSGTDFTLTISSLQPEDFATYYCQQGYGKNNVDNAFGGGTKVEIK
notes: scFv at the C-terminus of an Fc; The Fc part is not specified; also called PL23006; not shown: The Fc part and the linker joining it to the scFv
B8: PL004B9 mAb (antibody, V domains shown)
VH: EVQLVESGGGLVQPGGSLRLSCTVSGIDLSVINMGWVRQAPGKGLEWIGTITYVGNTYYASWAKGRFTISKTSTTVDLKITSPTTEDTAVYYCARESGTIYYSYFNLWGQGTLVTVSS
VL: AFELTQSPSSLSASVGDRVTIKCQASESISNYLSWYQQIPGKVPKLLIYYASNLASGVPSRFSGSGSGTDFTLTISSLQPEDVATYYCQSYYGGGSAYTFGGGTKVEIK
notes: as for B3
B9: PL221G5 IgG1 null (antibody, V domains shown)
VH: B3 VH
VL: DIQMTQSPSTLSASVGDRVTITCQASQSISSHLNWYQQKPGKAPKLLIYKASTLASGVPSRFSGSGSGTEFTLTISSLQPDDFATYYCQQGYSWGNVDNVFGGGTKVEIKR

Target: T1, PD-1 antigen expressed on the surface of cells (human, UniProt Q15116 25-288)
T1 construct: whole, on cells; also called PD-1 receptor; CHO cell line expressing PD-1 antigen
T1 sequence (Q15116 25-288): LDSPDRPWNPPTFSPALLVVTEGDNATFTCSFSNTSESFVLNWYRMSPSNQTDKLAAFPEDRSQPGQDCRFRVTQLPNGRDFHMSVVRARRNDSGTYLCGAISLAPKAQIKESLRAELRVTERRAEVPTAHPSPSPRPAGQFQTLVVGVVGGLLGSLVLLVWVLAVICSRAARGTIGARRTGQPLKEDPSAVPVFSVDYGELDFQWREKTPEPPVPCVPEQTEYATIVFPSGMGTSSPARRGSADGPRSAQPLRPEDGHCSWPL
Assay: Flow cytometry on CHO cells expressing PD-1, Alexa Fluor 647 anti-human secondary. The value is printed beside the curves without a name; the text speaks of a KD. It is assigned to the lower, right curve (triangles) by its position.
Method: (§1) Binding of the bispecific antibodies and their components to PD-1 antigen expressed on the surface of CHO cell line was assessed using FACS method. The bispecific antibodies were incubated with CHO cell line expressing PD-1 antigen and then detected with secondary anti-human antibodies directly conjugated to Alexa Fluor 647 fluorochrome. Cellular binding of the test antibodies was analyzed on a flow cytometer BD LSRFortessa.

Row | Kd | Binder
1 | 1.04 nM | B1

Target: T2, PD-L1 recombinant protein (human, UniProt Q9NZQ7 19-238, limits assumed)
T2 construct: also called PD-L1 antigen
T2 sequence (Q9NZQ7 19-238 limits assumed): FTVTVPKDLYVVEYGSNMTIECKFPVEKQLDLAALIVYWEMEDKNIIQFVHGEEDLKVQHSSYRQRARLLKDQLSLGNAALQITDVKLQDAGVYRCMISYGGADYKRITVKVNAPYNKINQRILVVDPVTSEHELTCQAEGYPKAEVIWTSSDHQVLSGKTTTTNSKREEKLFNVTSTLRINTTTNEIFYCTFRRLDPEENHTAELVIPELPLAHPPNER
Assay: ForteBio Octet RED96, PD-L1 immobilised, antibody in solution
From the text: The antigen was immobilized on the sensor chip surface and the tested antibodies were flown over the immobilized antigens.

Row | Kd | koff | kon | Binder
2 | 0.412 nM | 0.000171 s⁻¹ | 414000 M⁻¹ s⁻¹ | B2
3 | 0.483 nM | 0.000276 s⁻¹ | 572000 M⁻¹ s⁻¹ | B3
4 | 1.54 nM | 0.000471 s⁻¹ | 307000 M⁻¹ s⁻¹ | B4
5 | 0.769 nM | 0.000468 s⁻¹ | 609000 M⁻¹ s⁻¹ | B5
6 | 0.781 nM | 0.000391 s⁻¹ | 501000 M⁻¹ s⁻¹ | B6
7 | 0.868 nM | 0.000362 s⁻¹ | 418000 M⁻¹ s⁻¹ | B7
8 | 1.37 nM | 0.000695 s⁻¹ | 508000 M⁻¹ s⁻¹ | B8

Target: T1, PD-1 antigen expressed on the surface …
Assay: Flow cytometry on CHO cells expressing PD-1, Alexa Fluor 647 anti-human secondary
Method: as §1

Row | EC50 (read off the curve) | Binder
9 | ~1 nM | B1

Target: PD-L1 on CHO-PD-L1 cell line (human, UniProt Q9NZQ7 19-290)
Sequence (Q9NZQ7 19-290): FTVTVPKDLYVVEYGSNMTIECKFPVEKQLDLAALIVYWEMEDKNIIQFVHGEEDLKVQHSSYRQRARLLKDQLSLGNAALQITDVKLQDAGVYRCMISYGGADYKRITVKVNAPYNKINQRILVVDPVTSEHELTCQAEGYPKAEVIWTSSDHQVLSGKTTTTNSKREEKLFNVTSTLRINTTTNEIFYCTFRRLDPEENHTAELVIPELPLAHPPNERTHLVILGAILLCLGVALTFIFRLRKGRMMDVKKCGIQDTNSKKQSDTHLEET
Assay: cell-based or functional assay

Row | EC50 (read off the curve), NFAT-luciferase reporter, Jurkat PD-1 cells with CHO-PD-L1 cells | Binder
10 | ~0.3 nM | B9
